# Source: patent publication US6919309B2, “Methods and compositions for inhibiting angiogenesis” (Northwestern University, priority 1997, dated 2005)
# Marks after values point to notes of the source that are not given here.
# Assays:
# [1] = system: human dermal microvascular endothelial cells; assay: Endothelial cell migration assay (modified Boyden chamber), human dermal microvascular endothelial cells; type: cell-based; details: 10 ng/ml bFGF plus PEDF; FIG. 1
# Experimental: The cells were plated on gelatinized Nucleopore membranes (5 μm pores for bovine capillary cells and 8 μm pores for other cells) in an inverted modified Boyden chamber. After two hours, the chamber was reinverted and test substances added to the top wells of each. Specifically, populations were exposed to either culture medium alone (control), 10 ng/ml bFGF, 2 nM PEDF (full length PEDF), or both 10 ng/ml bFGF (basic fibroblast growth factor) and 10 nM PEDF. The cells were then permitted to migrate for 3-4 hours. Following this, the membranes were fixed and stained, and the number of cells that had migrated were counted.
# Additional truncated peptides derived from PEDF were tested for efficacy in the endothelial cell migration assay using human dermal microvascular endothelial cells (Clonetics, Cell Systems) at passage 9 in a modified Boyden Chamber, as described above, and the results are shown in FIG. 7. In FIG. 7A, the cells were exposed to the gradient of VEGF in the presence of purified recombinant PEDF (rPEDF), bacterially produced PEDF (BH) or PEDF peptides containing only amino acid residues 78-121 (44-mer) and 44-77 (34-mer) referring to SEQ ID NO:1. Neutralizing antibodies were added where shown to verify if the anti-angiogenic effect is specific to PEDF peptides and not due to contamination. Both full length PEDF preparations were used at 25 nM, neutralizing polyclonal antiserum against PEDF was used at 1:200 dilution, recombinant human VEGF (R&D Systems) at 200 pg/ml. In FIG. 7B, the cells were exposed to the gradient of VEGF in the presence of increasing concentrations of 34-mer and 44-mer peptides. The antiserum used in this experiment was not affinity purified, whereas the antiserum used in all other experiments presented herein was affinity purified.
# [2] = system: WI-38 fibroblasts, human foreskin fibroblasts, vascular smooth muscle cells, human neutrophils; assay: Migration assay with non-endothelial cells; type: cell-based; details: PEDF 0.01 nM to about 50 nM; inducers IL-8 or PDGF; FIGS. 2A-2D
# Experimental: The ability of PEDF to prevent migration of fibroblasts or smooth muscle was tested using cells obtained from human diploid fibroblast cell line WI-38, human foreskin fibroblasts, vascular smooth muscle, and normal human neutrophils.
# The assay was performed as indicated in Example 1, except that the dose of PEDF varied from 0.01 nM to about 50 nM and that the migration assay was performed without inverting the chambers. Moreover, the inducer of migration varied with the cell type (IL-8 was used at 1 μg/ml and PDGF was used at 250 pg/ml).
# [3] = system: skin of athymic (nude/nude) mice; assay: Hair follicle density in skin of athymic nude mice after PEDF injection; type: in vivo, mouse; details: 2 μg purified PEDF daily for four days into tumors; FIG. 8
# Experimental: FIG. 8, comprising FIGS. 8A, 8B and 8C, is a series of images of photomicrographs of sections of skin obtained from animals treated with PEDF, wherein hair follicles are depicted. Human neuroblastoma tumors growing subcutaneously in nude mice were injected at 2-3 sites/tumor for four consecutive days with 2 μg of purified PEDF. On the fifth day, hair was noticed growing over the treated tumors. […] Similar increases in hair follicle density have been seen in the absence of tumors following injection of purified PEDF.
# The treatment consisted of injecting a total of 2 μg of purified histidine-tagged PEDF in a volume of 100 μl of phosphate buffered saline into 2-3 sites/tumor each day for 4 consecutive days. On the fifth day, a small area of increased hair growth was noticed over the injection sites. The mice were euthanized using an overdose of metaphane, and the tumors were surgically removed. Tumor tissue was sliced and placed in buffered formalin for at least 24 hours. Tissue was embedded in paraffin and prepared for histologic examination. The skin overlying neuroblastoma tumors treated with PEDF had increased hair follicle density when compared with the skin overlying tumors injected with saline vehicle (FIG. 8). Similar increases in hair follicle density have been seen in the absence of tumors following injection of purified PEDF.
# [4] = system: SK-N-BE(2) and SK-N-SH neuroblastoma cells; assay: Differentiation of cultured human neuroblastoma cells (neurite outgrowth); type: cell-based; details: in vitro, 24 hours, purified histidine tagged PEDF; FIGS. 9, 10
# Experimental: In vitro experiments were conducted to verify the effect of PEDF on cell lines derived from neuroblastoma tumors. Two neuroblastoma derived cell lines were obtained from the American Tissue Type and Culture, SK-N-BE(2) and SK-N-SH. Both cell lines were maintained in culture in DMEM containing 10% fetal bovine serum (Flow Laboratories, McLean, Va.) in 37° C. and 5% CO2. Cells (1.25×10^4/ml) were resuspended, and 1 ml/well was used to seed 24 well plates. Twenty-four hours later, PEDF was added to triplicate wells at […] , 0.75, 1 or 10 nM, and the cells were incubated for an additional 24 hours. The percentage of differentiated cells was determined by counting the total number of cells in three non-overlapping 1 mm^2 areas per well.
# SK-N-BE(2) tumors = assay: Differentiation of human neuroblastoma tumors in athymic mice (neurofilament staining); type: in vivo, mouse; details: 2 μg PEDF per day intratumoral, 4 days
# Experimental: In vivo experiments were conducted to determine the effect of PEDF on neuroblastoma tumors. […] When the tumors grew to a palpable size (approximately 8 mm in diameter) PEDF treatment was started. A total of 2 μg of purified histidine-tagged PEDF in a volume of 100 μl of phosphate buffered saline was injected into 2-3 sites/tumor each day for 4 consecutive days. On the fifth day, the mice were euthanized by an overdose of metaphane, and the tumors were surgically removed. Tumor tissue was sliced and placed in buffered formalin for at least 24 hours. Tissue was embedded in paraffin and prepared for histologic examination. Sections were stained with an antibody that recognized neurofilament protein (Dako, Carpinteria, Calif.). […] A total of six SK-N-BE(2) tumors were treated with PEDF and 6/6 were moderately to strongly positive for neurofilament staining.
# retina of C57/BL6 mice = assay: Hyperoxia-induced ischemic retinopathy, systemic treatment; type: in vivo, mouse; details: day 12 through 16
# Experimental: Retinopathy was induced in C57/BL6 mice by placing seven day old mice with their dams in an oxygen tent and maintaining the animals in a 75% oxygen/25% nitrogen environment until day twelve. On day twelve, the animals were removed from the tent and placed at ambient atmosphere (21% oxygen). From day twelve through day sixteen, pups were treated via intraperitoneal injection once per day with 100 μl of either phosphate buffered saline (PBS) vehicle, or 11.2 μg or 22.4 μg PEDF in PBS. Pups were anesthetized with Metaphane and perfused with 1 ml of fixative (4% paraformaldehyde/100 mM sodium phosphate buffer (pH 7.2)/4% sucrose) through the left ventricle of the heart. Eyes were removed and placed in fixative, embedded in paraffin, and processed for histologic examination. Cross sections of the eye were made, stained with hematoxylin-phloxine-saffarin (HPS), and the number of endothelial cell nuclei crossing the inner limiting membrane of the retina were counted in one cross section that contained the cornea, lens, retina and optic nerve. FIG. 16A illustrates retinopathy in the eye of a PBS treated animal, the box surrounds a vascular tuft that has penetrated the inner limiting membrane of the retinal in the low power picture. FIGS. 16C and 16D illustrate the eye of a PEDF treated mouse, no vascular tufts are present. The # of endothelial cell nuclei were quantified (Table 3).
molecule,measurement,setting,value
"PEDF: full length pigment epithelium derived growth factor, SEQ ID NO:1; purified from WERI-Rb-27R medium or recombinant histidine-tagged (protein, listed as Homo Sapiens) MQALVLLLCIGALLGHSSCQNPASPPEEGSPDPDSTGALVEEEDPFFKVPVNKLAAAVSNFGYDLYRVRSSMSPTTNVLLSPLSVATALSALSLGADERTESIIHRALYYDLISSPDIHGTYKELLDTVTAPQKNLKSASRIVFEKKLRIKSSFVAPLEKSYGTRPRVLTGNPRLDLQEINNWVQAQMKGKLARSTKEIPDEISILLLGVAHFKGQWVTKFDSRKTSLEDFYLDEERTVRVPMMSDPKAVLRYGLDSDLSCKIAQLPLTGSMSIIFFLPLKVTQNLTLIEESLTSEFIHDIDRELKTVQAVLTVPKLKLSYEGEVTKSLQEMKLQSLFDSPDFSKITGKPIKLTQVEHRAGFEWNEDGAGTTPSPGLQPAHLTFPLDYHLNQPFIFVLRDTDTGALLFIGKILDPRGP","migration, percentage of maximal migration",[1],considerably less migration was observed
same,inhibition of migration of non-endothelial cells,[2],did not inhibit the migration
same,density of hair follicles compared with vehicle-treated skin,[3],three-fold increased density of hair follicles
same,differentiation of neuroblastoma cells,[4],triggered differentiation of the cells
same,tumors moderately to strongly positive for neurofilament staining / tumors treated,SK-N-BE(2) tumors,6/6
same,Mean number of endothelial cell nuclei crossing ILM into vitreous per cross section,retina of C57/BL6 mice; 11.2 μg PEDF/day intraperitoneal,18.6 +/− 2.2*
same,Mean number of endothelial cell nuclei crossing ILM into vitreous per cross section,retina of C57/BL6 mice; 22.4 μg PEDF/day intraperitoneal,18.2 +/− 2.5*
